We go through 1 protein from FireProtDB (doi:10.1002/pro.3128).

For the series the following is noted: Homo sapiens, pH 7.3, 25 °C, Sodium citrate 5mM, KF 50mM, transition: 2, reversible: no, whole UniProt chain shown.

B1: Pleckstrin homology domain-containing family F member 2 wild type, Q9H8W4 (protein)
chain: MVDRLANSEANTRRISIVENCFGAAGQPLTIPGRVLIGEGVLTKLCRKKPKARQFFLFNDILVYGNIVIQKKKYNKQHIIPLENVTIDSIKDEGDLRNGWLIKTPTKSFAVYAATATEKSEWMNHINKCVTDLLSKSGKTPSNEHAAVWVPDSEATVCMRCQKAKFTPVNRRHHCRKCGFVVCGPCSEKRFLLPSQSSKPVRICDFCYDLLSAGDMATCQPARSDSYSQSLKSPLNDMSDDDDDDDSSD
With B1, the denaturant m value by setting is: (GdnHCl, CD) 2.48 kcal/mol/M; (GdnHCl, Fluorescence) 2.93 kcal/mol/M; (Urea, CD) 1.16 kcal/mol/M; (Urea, Fluorescence) 1.19 kcal/mol/M. Further, the “denaturant midpoint (higher = more stable)” value is, setting by setting: (GdnHCl, CD) 1.51 M; (GdnHCl, Fluorescence) 1.3 M; (Urea, CD) 3.45 M; (Urea, Fluorescence) 3.42 M. Further, the unfolding free energy turned out to be 3.75 kcal/mol (GdnHCl, CD); 3.8 kcal/mol (GdnHCl, Fluorescence); 4 kcal/mol (Urea, CD); 4.07 kcal/mol (Urea, Fluorescence).
